{"source": "patent US20230399393A1", "about": "“METHODS TO EXTEND HEALTH-SPAN AND TREAT AGE-RELATED DISEASES” (National University of Singapore, priority 2020, published 2023)", "molecules": {"B1": {"name": "X203: mouse anti-mouse IL-11 IgG antagonist antibody; VH SEQ ID NO:22, VL SEQ ID NO:23 (antibody, V domains shown)", "VH": "EVQLQQSGPELVKPGASVKIPCKASGYTFTDYNMDWVKQSHGKSLEWIGDINPHNGGPIYNQKFTGKATLTVDKSSSTAYMELRSLTSEDTAVYYCARGELGHWYFDVWGTGTTVTVSS", "VL": "DIVLTQSPASLAVSLGQRATISCRASKSVSTSGYSYIHWYQQKPGQPPKLLIYLASNLDSGVPARFSGSGSGTDFTLNIHPVEEEDAATYYCQHSRDLPPTFGGGTKLEIK"}}, "key": {"[1]": {"tested_on": "C57Bl/6J mice", "experiment": "Mouse Frailty Index in aged mice treated from 55 to 110 weeks of age", "format": "in vivo", "conditions": "mice aged 110 weeks; 40 mg/kg IP every 3 weeks from age 55 weeks; vs isotype control IgG", "protocol": "C57Bl/6J mice aged 46 weeks were obtained from the Jackson Laboratory, and randomised on a 1:1 basis to receive either X203 or an isotype control IgG antibody.\n(§1) From age 55 weeks (human equivalent of ˜45 years old (i.e. middle age)) to age 110 weeks (human equivalent of ˜75 years old), mice were administered with 40 mg/kg of either X203 or isotype-matched control IgG via intra-peritoneal injection every 3 weeks.\n(§2) At age 110 weeks, frailty was assessed using the Mouse Frailty Index described in Rizzo et al. Curr Protoc Mouse Biol. (2018) 8(2):e45, which is hereby incorporated by reference in its entirety. In this protocol, mice are individually observed and evaluated for the absence or presence and severity of 27 different characteristics each scored as 0, 0.5, or 1 based on level of severity. A frailty index score is calculated as the cumulative score of all measures. As a separate measurement of frailty, core body temperature was recorded, as core body temperature is known to decrease with increasing frailty in mice (Reynolds et al., Mechanisms of Ageing and Development (1985) 30(2):143-52). Data were analysed by 2-way ANOVA.\nEnd-point frailty scoring was performed 2 days prior to sacrifice using the accepted frailty scoring system (Sukoff Rizzo et al. 2018, Current Protocols in Mouse Biology 8 (2): e45.)"}, "[2]": {"tested_on": "C57Bl/6J mice", "experiment": "Grip strength using a grip strength meter", "format": "in vivo, mouse", "conditions": "at 110 weeks; vs IgG control antibody", "protocol": "C57Bl/6J mice are randomised to receive either X203 or IgG control antibody at a dose of 40m/kg via IP injection every 3 weeks from age 55 weeks to age 110 weeks.\nAt 110 weeks, mice are analysed for grip strength using a grip strength meter. Reduced grip strength is a robust marker of ageing-associated frailty in mice (see Fischer et al., Aging (2016) 8: 2370-2391, hereby incorporated by reference in its entirety).\nMice grip a wire mesh attached to the meter with both forelimbs, and are then gently pulled by the tail in a horizontal plane parallel to the base plate of the meter. Grip strength is recorded as the maximum force registered."}, "[3]": {"tested_on": "C57Bl/6J mice", "experiment": "Serum IL-6 levels of old mice (ELISA)", "format": "in vivo, mouse", "conditions": "old (110 week-old) male and female mice; vs IgG isotype control", "protocol": "FIG. 51. A neutralizing IL-11 antibody reduces the levels of IL-6 protein in the serum of old mice. Graphs showing the effects of treatment with anti-IL11 (X203) or IgG isotype control on serum IL-6 levels levels of old (110 week-old) male and female mice. Dotted lines indicate the mean serum IL-6 levels of 12 week-old control male (0.159 μg/ml) and female (0.236 μg/ml) mice. Data were analyzed by 2-way ANOVA.\nIL-6 is strongly linked with ageing (Maggio et al. 2006, J Gerontol A Biol Sci Med Sci. 61(6): 575-584; Ershler and Keller 2000, Annual Review of Medicine 51: 245-70).\nMale and female C57Bl/6J mice aged 46 weeks were purchased from the Jackson Laboratory. Mice were randomised on a 1:1 basis to receive either 40 mg/kg of X203 or an isotype control IgG antibody (11E10), every 3 weeks (IP), starting from 55 weeks of age. Mice were sacrificed at 110 weeks of age for blood and tissues collection. 12 weeks old male and female C57Bl/6J mice that were used as control were purchased from Invivos (Singapore).\nThe levels of IL6 in mouse serum were quantified using Mouse IL-6 Quantikine ELISA Kit (M6000B; R&D Systems)."}, "[4]": {"tested_on": "C57Bl/6J mice", "experiment": "Body-composition assessment via echo MRI", "format": "in vivo, mouse", "conditions": "baseline age 55 weeks vs 108-109 weeks, vs IgG control", "protocol": "as §1\nMice also underwent body-composition assessment via echo MRI both at baseline (age 55 weeks) and at 108-109 weeks. This enabled calculation of the change in body fat mass and lean (muscle) mass in the X203 and IgG control treatment groups. Gastrocnemius and soleus muscles were also harvested from the mice at age 110 weeks and their weights were recorded. Data were analysed by 2-way ANOVA.\nEnd-point total body fat and lean mass measurements were performed 2 days prior to sacrifice by EchoMRI analysis using 4in1 Body Composition Analyzer for Live Small Animal."}, "[5]": {"tested_on": "C57Bl/6J mice", "experiment": "Core body temperature of aged mice", "format": "in vivo, mouse", "conditions": "mice aged 110 weeks; 40 mg/kg IP every 3 weeks from age 55 weeks; vs isotype control IgG", "protocol": "as §1, §2"}, "[6]": {"tested_on": "AML12", "experiment": "Senescence reversal experiment, qPCR at day 10", "format": "cell-based, mouse", "conditions": "2 μg/ml for 72 hours after 7 days senescence induction; vs IgG", "protocol": "FIG. 25. (25A) Schematic of senescence reversal experiment for data shown in B-D. Senescent AML12 were generated for 7 days as described above. IgG/X203/X209 (2 μg/ml) was added into the cultures at the end of senescence induction period for 72 hours; cells were harvested at day 10 for RNA extraction and subsequent qPCR experiments. Relative mRNA expression of (25B) Cdkn1a (p21), (25C) Il1β, and (25D) Il11.\nBriefly, senescent AML12 were generated for 7 days as described above, but IgG/X203/X209 (2 μg/ml) was added into the cultures at the end of senescence induction period for 72 hours.\nSenescent AML12 were generated by treating the cells with a sub-lethal concentration of H2O2 (0.75 mM) for 1 hour, followed by 23 hours recovery per day, for 7 days as described (Tripathi, Yen, and Singh 2020, STAR Protocols 1 (2): 100064). For prevention study, AML12 cells were treated with 2 ug/ml of either IgG or X209 during the recovery period of the senescence induction stage (from day 1 to day 7); cells were harvested for total RNA collection at day 10. For reversal study, senescence was first induced for seven days followed by 2 ug/ml of IgG, X203, or X209 treatment for 3 days; cells were harvested for total RNA collection at day 10.\nTotal RNA was extracted from AML12 or snap-frozen tissues using Trizol (Invitrogen) and RNeasy Mini Kit (Qiagen). […] using iScript cDNA Synthesis Kit (Biorad). Gene expression analysis was performed on duplicate samples with either TaqMan (Applied Biosystems) for Il11 (Mm00434162) or fast SYBR green (Qiagen) technology using StepOnePlus™ (Applied Biosystem) for Ccl2, Ccl5, Gapdh, Il1β, Il6, Il8, p16, p21, Tnfα, over 40 cycles. Expression data were normalized to GAPDH mRNA expression and fold change was calculated using 2^−ΔΔct method."}}}
{"molecule": "B1", "values": [{"measurement": "frailty index", "setting": "[1]", "result": "significant reduction"}, {"measurement": "grip strength", "setting": "[2]", "result": "greater"}, {"measurement": "levels of IL-6 protein in the serum", "setting": "[3]", "result": "significantly reduces"}, {"measurement": "fat mass gained (change in body fat mass)", "setting": "[4]", "result": "significantly less"}, {"measurement": "lean mass", "setting": "[4]", "result": "significantly greater"}, {"measurement": "body temperature", "setting": "[5]", "result": "significantly higher"}, {"measurement": "inflammation marker IL-1 b", "setting": "[6]", "result": "significantly reduce"}, {"measurement": "inflammation marker IL-11", "setting": "[6]", "result": "significantly reduce"}, {"measurement": "senescence marker p21", "setting": "[6]", "result": "significantly reduce"}]}
